According to patent US20140294898A1 (published 2014):
Starred links: 1 amine or outer side, 2 acyl side, 3 side chain; linkers in the order of their positions; H or OH if unused. Positions of bridges follow the written chain, without caps; N, C: chain ends. Non-standard residues stand in square brackets, D forms with d. trans‑Pro(4-(4-fluorobenzyl)) = trans-4-(4-fluorobenzyl)-L-proline, O=C([C@@H]1C[C@@H](Cc2ccc(F)cc2)CN1[*:1])[*:2]; Pro(cis-4-Ph) = O=C(O)[C@@H]1C[C@H](c2ccccc2)CN1; NMeNle = CCCC[C@H](NC)C(=O)O; NMeA = CN[C@@H](C)C(=O)O; Dab = NCC[C@H](N)C(=O)O

How the values were obtained:
hPDL1(19-239)-TVMV-His [1] = molecular target: T1, hPDL1(19-239)-TVMV-His (human, UniProt Q9NZQ7 19-239); assay: HTRF competition, inhibitor titrated against PD-1-Ig binding to PD-L1-His
T1 construct: The text says amino acids 18-239, the construct name says 19-239; also called PD-L1-His; PD-L1-TVMV-His
Description: (§1) All binding studies were performed in an HTRF assay buffer consisting of dPBS supplemented with 0.1% (w/v) bovine serum albumin and 0.05% (v/v) Tween-20. […] PD-L1 fusion proteins from either human, cynomologous macaques, or mouse were used. HTRF detection was achieved using europium crypate-labeled anti-Ig monoclonal antibody (1 nM final) and allophycocyanin (APC) labeled anti-His monoclonal antibody (20 nM final). Antibodies were diluted in HTRF detection buffer and 5 μl was dispensed on top of binding reaction. The reaction was allowed to equilibrate for 30 minutes and signal (665 nm/620 nm ratio) was obtained using an EnVision fluorometer. […]
T1 sequence (Q9NZQ7 other isoform, or with tags, fused parts or gaps limits assumed): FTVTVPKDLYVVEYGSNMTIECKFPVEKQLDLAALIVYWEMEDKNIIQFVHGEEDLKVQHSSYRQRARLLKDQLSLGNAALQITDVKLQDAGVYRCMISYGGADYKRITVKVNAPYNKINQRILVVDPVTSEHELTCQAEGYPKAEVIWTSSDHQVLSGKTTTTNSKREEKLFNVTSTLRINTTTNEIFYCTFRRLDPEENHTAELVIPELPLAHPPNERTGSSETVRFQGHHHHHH

hPDL1(19-239)-TVMV-His [2] = molecular target: T1, hPDL1(19-239)-TVMV-His; assay: as above; remark: listed apart in the source
Description: as §1
HTRF Experiments were performed essentially as outlined supra. Variant macrocyclic peptides were created as outlined herein.

[3] = molecular target: T2, human PD-L1 expressed on cells (human, UniProt Q9NZQ7 19-290); assay: cell binding assay, PE-labeled PD-1-Ig on cells over-expressing human PD-L1, high-content imaging
T2 construct: whole, on cells; In the CMV recall assay PD-L1 is the endogenous protein on donor PBMC; also called hPD-L1; LK35.2-hPD-L1
T2 sequence (Q9NZQ7 19-290): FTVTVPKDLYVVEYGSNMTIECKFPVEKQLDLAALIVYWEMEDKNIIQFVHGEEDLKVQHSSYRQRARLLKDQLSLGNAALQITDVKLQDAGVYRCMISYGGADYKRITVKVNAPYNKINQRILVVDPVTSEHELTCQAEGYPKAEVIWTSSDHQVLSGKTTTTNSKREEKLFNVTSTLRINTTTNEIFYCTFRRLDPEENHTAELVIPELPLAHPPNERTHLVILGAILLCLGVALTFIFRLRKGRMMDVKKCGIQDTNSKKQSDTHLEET

hPDL1(19-239)-TVMV-His [4] = molecular target: T3, hPDL1(19-239)-TVMV-His (human, UniProt Q9NZQ7 19-239); assay: HTRF competition, PD-1-Ig binding to PD-L1-His
T3 construct: The text says amino acids 18-239, the construct name says 19-239; also called PD-L1-His; PD-L1-TVMV-His
T3 sequence (Q9NZQ7 other isoform, or with tags, fused parts or gaps limits assumed): as the sequence (Q9NZQ7 other isoform, or with tags, fused parts or gaps limits assumed) above

human PD-L1 on cells [5] = molecular target: T4, human PD-L1 on cells (human, UniProt Q9NZQ7 19-290); assay: cell binding assay (CBA): PE-labelled PD-1-Ig on cells over-expressing human PD-L1
T4 construct: whole, on cells; The same entry serves as PD-L1 on PBMC in the CMV recall assay; also called hPD-L1; LK35.2-hPD-L1
T4 sequence (Q9NZQ7 19-290): as the sequence (Q9NZQ7 19-290) above

human PD-L1 on cells [6] = molecular target: T4, human PD-L1 on cells; assay: cell-based or functional assay
hPDL1(19-239)-TVMV-His [7] = molecular target: T5, hPDL1(19-239)-TVMV-His (human, UniProt Q9NZQ7 19-239); assay: HTRF competition of PD-1-Ig binding to PD-L1-His
T5 construct: The text says amino acids 18-239, the construct name says 19-239; The entry includes the TVMV site and the His tag; also called PD-L1-His; PD-L1-TVMV-His
T5 sequence (Q9NZQ7 other isoform, or with tags, fused parts or gaps limits assumed): as the sequence (Q9NZQ7 other isoform, or with tags, fused parts or gaps limits assumed) above

Row | Binder | IC50 (hPDL1(19-239)-TVMV-His [2]) | IC50 (human PD-L1 on cells [5]) | CMV Recall EC50; IFNγ secretion by CMV-specific T cells (human PD-L1 on cells [6]) | IC50 (hPDL1(19-239)-TVMV-His [7]) | also measured
1 | {CH2CO}-FLIVIRDRVFRCG-NH2 (thioether N-12, Macrocyclic peptide; parent of the Formula III series) [Compound No. 99] | 153 nM |  |  |  | IC50 (hPDL1(19-239)-TVMV-His [1]): 153 nM
2 | FLIVIRDRFFRCG (HELM PEPTIDE1{[O=C(C[*:3])[*:2]].F.L.I.V.I.R.D.R.F.F.R.C.G.[am]}$PEPTIDE1,PEPTIDE1,1:R3-13:R3$$$V2.0; SMILES CC[C@H](C)[C@@H]1NC(=O)[C@H](CC(C)C)NC(=O)[C@H](Cc2ccccc2)NC(=O)CSC[C@@H](C(=O)NCC(N)=O)NC(=O)[C@H](CCCNC(=N)N)NC(=O)[C@H](Cc2ccccc2)NC(=O)[C@H](Cc2ccccc2)NC(=O)[C@H](CCCNC(=N)N)NC(=O)[C@H](CC(=O)O)NC(=O)[C@H](CCCNC(=N)N)NC(=O)[C@H]([C@@H](C)CC)NC(=O)[C@H](C(C)C)NC1=O, Macrocyclic variant of Compound No. 99) [Compound No. 111] | 540 nM |  |  |  | 
3 | FFXGDVFYGYYLCG (HELM PEPTIDE1{[O=C(C[*:3])[*:2]].F.[meF].[CCCC[C@@H](C(=O)[*:2])N(C)[*:1]].[Sar].D.V.[meF].Y.[Sar].Y.Y.L.C.G.[am]}$PEPTIDE1,PEPTIDE1,1:R3-14:R3$$$V2.0; SMILES CCCC[C@H]1C(=O)N(C)CC(=O)N[C@@H](CC(=O)O)C(=O)N[C@@H](C(C)C)C(=O)N(C)[C@@H](Cc2ccccc2)C(=O)N[C@@H](Cc2ccc(O)cc2)C(=O)N(C)CC(=O)N[C@@H](Cc2ccc(O)cc2)C(=O)N[C@@H](Cc2ccc(O)cc2)C(=O)N[C@@H](CC(C)C)C(=O)N[C@H](C(=O)NCC(N)=O)CSCC(=O)N[C@@H](Cc2ccccc2)C(=O)N(C)[C@@H](Cc2ccccc2)C(=O)N1C, ClAc-Phe-[N-Me]Phe-[N-Me]Nle-Sar-Asp-Val-[N-Me]Phe-Tyr-Sar-Tyr-Tyr-Leu-Cys-Gly-NH2, cyclised) [Example 3526] |  |  |  |  | IC50 [3]: 629 nM; IC50 (hPDL1(19-239)-TVMV-His [4]): 132 nM
4 | {CH2CO}-Y[NMeA]NPHE[trans‑Pro(4-(4-fluorobenzyl))]W[Dab]W[NMeNle][NMeNle][Dab]CG-NH2 (thioether N-14; SMILES CCCC[C@H]1C(=O)N(C)[C@@H](CCCC)C(=O)N[C@@H](CCN)C(=O)N[C@H](C(=O)NCC(N)=O)CSCC(=O)N[C@@H](Cc2ccc(O)cc2)C(=O)N(C)[C@@H](C)C(=O)N[C@@H](CC(N)=O)C(=O)N2CCC[C@H]2C(=O)N[C@@H](Cc2c[nH]cn2)C(=O)N[C@@H](CCC(=O)O)C(=O)N2C[C@H](Cc3ccc(F)cc3)C[C@H]2C(=O)N[C@@H](Cc2c[nH]c3ccccc23)C(=O)N[C@@H](CCN)C(=O)N[C@@H](Cc2c[nH]c3ccccc23)C(=O)N1C, X marks Dab and Nle) [Example 13011] |  | 2.69 nM | 38.4 nM | 9.87 nM | 
5 | {CH2CO}-Y[NMeA]DPHK[Pro(cis-4-Ph)]WKW[NMeNle][NMeNle]ECG-NH2 (thioether N-14; SMILES CCCC[C@H]1C(=O)N(C)[C@@H](CCCC)C(=O)N[C@@H](CCC(=O)O)C(=O)N[C@H](C(=O)NCC(N)=O)CSCC(=O)N[C@@H](Cc2ccc(O)cc2)C(=O)N(C)[C@@H](C)C(=O)N[C@@H](CC(=O)O)C(=O)N2CCC[C@H]2C(=O)N[C@@H](Cc2c[nH]cn2)C(=O)N[C@@H](CCCCN)C(=O)N2C[C@@H](c3ccccc3)C[C@H]2C(=O)N[C@@H](Cc2c[nH]c3ccccc23)C(=O)N[C@@H](CCCCN)C(=O)N[C@@H](Cc2c[nH]c3ccccc23)C(=O)N1C, X marks Nle) [Example 13006] |  | 1.47 nM | 27.2 nM | 4.11 nM | 
